Results as given in patent publication US10718784B2, “Mitochondrial preproteins as markers for Alzheimer's disease” (Albert-Ludwigs-Universität Freiburg, priority 2014, dated 2020).

What was measured:
Purified yeast MPP = molecular target: T1, Purified yeast MPP (Saccharomyces cerevisiae, UniProt P10507+P11914); assay: MPP activity assay: processing of [35S]F1β precursor by purified MPP; format: biochemical, S. cerevisiae; settings: radiolabelled F1β precursor, increasing peptide concentrations
T1 construct: poly-histidine (N); made in house; host or cells: E. coli BL21, plasmid pVG18
Protocol: E. coli BL21 cells were transformed with plasmid pVG18 (32) that enables the transcription of a single mRNA encoding both β- (with N-terminal poly-histidine tag) and α-MPP subunits (Mas1 and Mas2) from S. cerevisiae. Cell cultures were grown in LB medium (10 g/l tryptone, 5 g/l yeast extract, 10 g/l NaCl) containing 100 μg/ml ampicillin at 37° C. to an OD600 of 0.6. Expression was induced by addition of 1 mM IPTG (Isopropyl β-D-1-thiogalactopyranoside, Formedium) for 4 h. Cells were harvested and snap-frozen in liquid nitrogen. Pellets were resuspended in binding buffer (20 mM Na3PO4, 200 mM NaCl, 20 mM imidazole, pH 7.4) containing 1 mg/ml lysozyme (Sigma) and 10 μg/ml DNaseI (Sigma) and incubated for 1 h at 4° C. for cell lysis. The cell extract was centrifuged at 4000×g to remove unbroken cells. The supernatant was further centrifuged at 100,000×g for 30 min at 4° C. The obtained supernatant was incubated with Ni-NTA resin (Qiagen) for 3 h at 4° C. The resin was washed four times with binding buffer. Bound proteins were eluted with Elution buffer (20 mM Na3PO4, 200 mM NaCl, 200 mM imidazole, pH 7.4). […]
Purified yeast MPP (0.15 μg protein) was incubated in processing buffer (10 mM HEPES/KOH, pH 7.4, 0.1 mM MnCl2, 1 mM DTT, 0.1 mg/ml BSA) for 15 min at 30° C. […] The samples were analyzed by SDS-PAGE followed by autoradiography. Bands were quantified using the Multi Gauge software (Fuji Film). […]

MPP = molecular target: T2, MPP (Saccharomyces cerevisiae, UniProt P10507+P11914); assay: In vitro processing of [35S]Sod2 precursor in yeast soluble mitochondrial extracts; format: biochemical
T2 construct: endogenous in cells; host or cells: soluble extract of mitochondria isolated from S. cerevisiae strains (wild-type, cym1Δ)
T2 sequence (P10507 21-462): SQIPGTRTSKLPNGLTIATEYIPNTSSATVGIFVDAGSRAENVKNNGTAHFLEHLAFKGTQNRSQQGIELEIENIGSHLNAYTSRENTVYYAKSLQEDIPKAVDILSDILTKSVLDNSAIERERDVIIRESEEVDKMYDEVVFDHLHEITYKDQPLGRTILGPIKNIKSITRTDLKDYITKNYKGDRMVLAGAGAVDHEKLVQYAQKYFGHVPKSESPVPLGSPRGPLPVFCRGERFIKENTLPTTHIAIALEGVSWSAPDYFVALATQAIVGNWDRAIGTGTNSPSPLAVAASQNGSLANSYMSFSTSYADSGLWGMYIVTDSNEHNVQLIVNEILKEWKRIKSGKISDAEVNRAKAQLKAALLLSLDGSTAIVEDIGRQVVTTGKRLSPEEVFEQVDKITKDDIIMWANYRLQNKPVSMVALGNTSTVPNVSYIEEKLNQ
T2 sequence (P11914 14-482): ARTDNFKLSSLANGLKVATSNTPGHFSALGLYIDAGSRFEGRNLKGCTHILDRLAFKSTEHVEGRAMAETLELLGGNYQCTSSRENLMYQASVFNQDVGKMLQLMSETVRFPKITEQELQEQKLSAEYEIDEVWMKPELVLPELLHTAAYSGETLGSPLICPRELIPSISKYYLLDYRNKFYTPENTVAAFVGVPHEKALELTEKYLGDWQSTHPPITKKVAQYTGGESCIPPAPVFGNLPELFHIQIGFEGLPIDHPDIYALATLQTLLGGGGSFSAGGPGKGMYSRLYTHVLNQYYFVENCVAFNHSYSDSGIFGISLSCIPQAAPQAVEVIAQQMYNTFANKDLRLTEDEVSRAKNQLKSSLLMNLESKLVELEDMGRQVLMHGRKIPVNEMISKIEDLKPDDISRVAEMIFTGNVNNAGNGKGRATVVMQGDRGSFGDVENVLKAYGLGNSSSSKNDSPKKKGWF
Protocol: (§1) Isolated mitochondria from yeast strains grown under respiratory conditions were washed with SEM buffer, re-isolated and resuspended in reaction buffer (250 mM sucrose, 10 mM MOPS/KOH, pH 7.2, 80 mM KCl, 5 mM MgCl2, 5 mM KH2PO4) to a concentration of 3 μg/μl. Mitochondria were subjected to sonication (five times 30 s with 30 s breaks on ice, Sonifier250, Branson) followed by centrifugation at 100,000×g for 45 min at 4° C. The obtained supernatant was used for processing and degradation experiments. 0.5 μl of radiolabelled precursor protein and/or various peptides in different concentrations were added to 9 μl of yeast soluble mitochondrial extracts. Reactions were stopped by addition of 4× Laemmli buffer (8% (w/v) SDS, 0.08% (w/v) bromophenol blue, 40% (v/v) glycerol, 240 mM Tris/HCl, pH 6.8) containing 5% (v/v) β-mercaptoethanol and analyzed by SDS-PAGE followed by autoradiography and immunodecoration. Radiolabelled precursor proteins were synthesized with the transcription/translation rabbit reticulate lysate system (Promega) in the presence of ^35S-methionine. Chemical amounts of Cym1 and control protein (Oct1) were synthesized in vitro using the RTS wheat germ system (5 PRIME). 0.5 μl of cell-free translation product was used in the processing assays.

Cym1 = molecular target: T3, Cym1 (Saccharomyces cerevisiae, UniProt P32898); assay: Peptide degradation assay in soluble mitochondrial extracts; format: biochemical, yeast
T3 construct: endogenous in cells; host or cells: soluble extract of wild-type S. cerevisiae mitochondria (cym1Δ extract as control)
T3 sequence (P32898 17-989): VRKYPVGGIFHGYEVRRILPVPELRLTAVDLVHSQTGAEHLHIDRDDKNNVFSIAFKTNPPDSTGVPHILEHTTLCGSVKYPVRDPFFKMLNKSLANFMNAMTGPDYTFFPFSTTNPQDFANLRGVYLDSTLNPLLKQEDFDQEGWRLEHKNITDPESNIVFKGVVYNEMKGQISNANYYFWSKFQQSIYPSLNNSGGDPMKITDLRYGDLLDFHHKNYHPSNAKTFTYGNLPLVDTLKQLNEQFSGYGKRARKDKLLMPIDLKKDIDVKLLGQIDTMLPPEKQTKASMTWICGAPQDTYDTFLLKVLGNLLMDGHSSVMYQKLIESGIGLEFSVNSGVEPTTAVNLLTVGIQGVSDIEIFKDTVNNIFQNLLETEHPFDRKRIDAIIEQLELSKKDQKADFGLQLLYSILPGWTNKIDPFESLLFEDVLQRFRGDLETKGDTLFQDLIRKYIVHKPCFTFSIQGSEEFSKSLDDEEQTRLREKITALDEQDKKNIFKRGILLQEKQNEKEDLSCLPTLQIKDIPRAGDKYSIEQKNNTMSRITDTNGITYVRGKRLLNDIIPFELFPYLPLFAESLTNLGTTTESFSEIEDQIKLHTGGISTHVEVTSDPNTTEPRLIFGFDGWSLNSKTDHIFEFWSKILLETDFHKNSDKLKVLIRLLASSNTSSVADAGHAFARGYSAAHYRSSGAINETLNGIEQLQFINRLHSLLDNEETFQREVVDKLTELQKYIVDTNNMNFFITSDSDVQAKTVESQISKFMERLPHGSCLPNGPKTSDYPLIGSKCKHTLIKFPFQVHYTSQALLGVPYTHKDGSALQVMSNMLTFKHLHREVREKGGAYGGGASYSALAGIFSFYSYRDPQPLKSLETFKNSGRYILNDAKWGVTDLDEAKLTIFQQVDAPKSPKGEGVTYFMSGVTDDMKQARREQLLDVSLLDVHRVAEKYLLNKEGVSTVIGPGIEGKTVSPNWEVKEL
Protocol: as §1

Oct1 = molecular target: T4, Oct1 (Saccharomyces cerevisiae, UniProt P35999); assay: In vitro processing of [35S]Cox4 precursor in yeast mitochondrial extract in the presence of octapeptides; format: biochemical; settings: cym1Δ mitochondrial extract
T4 construct: endogenous in cells; host or cells: soluble extract of wild-type and cym1Δ S. cerevisiae mitochondria
T4 sequence (P35999 38-772): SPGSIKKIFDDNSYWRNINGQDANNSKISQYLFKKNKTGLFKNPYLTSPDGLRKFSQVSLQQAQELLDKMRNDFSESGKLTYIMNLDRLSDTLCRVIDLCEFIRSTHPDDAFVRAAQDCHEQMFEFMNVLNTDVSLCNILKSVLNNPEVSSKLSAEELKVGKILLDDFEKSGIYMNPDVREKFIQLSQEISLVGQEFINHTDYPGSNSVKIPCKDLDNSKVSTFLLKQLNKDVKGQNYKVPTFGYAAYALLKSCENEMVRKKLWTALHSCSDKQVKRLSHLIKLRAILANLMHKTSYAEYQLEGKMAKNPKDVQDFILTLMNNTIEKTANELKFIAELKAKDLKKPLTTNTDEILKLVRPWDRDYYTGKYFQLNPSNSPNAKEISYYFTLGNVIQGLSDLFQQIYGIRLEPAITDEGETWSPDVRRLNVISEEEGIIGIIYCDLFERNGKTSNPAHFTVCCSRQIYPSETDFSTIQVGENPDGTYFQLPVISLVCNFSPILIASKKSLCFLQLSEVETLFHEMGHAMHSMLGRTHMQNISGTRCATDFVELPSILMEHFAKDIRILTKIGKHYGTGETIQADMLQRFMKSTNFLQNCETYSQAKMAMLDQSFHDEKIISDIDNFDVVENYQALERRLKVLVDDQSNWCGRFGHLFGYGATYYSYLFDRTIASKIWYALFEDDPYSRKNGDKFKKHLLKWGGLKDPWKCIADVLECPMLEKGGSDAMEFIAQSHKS
Protocol: as §1

Cox4^preseq.: typical presequence peptide MLSLRQSIRFFKPATRTLCSSRYLL (SEQ ID No.: 15)
Processing activity of purified MPP on F1β precursor in the presence of peptide (Purified yeast MPP): able to inhibit purified MPP | In vitro processing of radiolabelled Sod2 precursor by MPP in the presence of presequence peptide (MPP; cym1Δ mitochondrial extract (absence of Cym1), 10 μM Cox4 presequence peptide): efficiently blocked | Degradation of the peptide in wild-type mitochondrial extract (Cym1; wild-type (WT) extract, peptide 10 μM): Rapid degradation

octapeptides: octapeptide derived from the Oct1 substrate Sdh1, FTSSALVR (SEQ ID No.: 16), EZ Biolab
Processing activity of purified MPP on F1β precursor in the presence of peptide (Purified yeast MPP): not affected | Oct1-dependent processing step of Cox4 precursor in the presence of octapeptides (Oct1): specific impairment of the Oct1-dependent processing step

Aβ^scrambled: scrambled Aβ peptide KVKGLIDGDHIGDLVYEFMDSNSAIFREGVGAGHVHVAQVEF (SEQ ID No.: 19)
Effect on Cox4 presequence peptide degradation (Cym1; WT soluble mitochondrial extract, 10 μM Cox4 presequence peptide in each reaction): not

B1: cell-free translated Cym1 protein: yeast PreP homolog Cym1 synthesized in vitro using the RTS wheat germ system (protein)
chain: MLRFQRFASSYAQAQAVRKYPVGGIFHGYEVRRILPVPELRLTAVDLVHSQTGAEHLHIDRDDKNNVFSIAFKTNPPDSTGVPHILEHTTLCGSVKYPVRDPFFKMLNKSLANFMNAMTGPDYTFFPFSTTNPQDFANLRGVYLDSTLNPLLKQEDFDQEGWRLEHKNITDPESNIVFKGVVYNEMKGQISNANYYFWSKFQQSIYPSLNNSGGDPMKITDLRYGDLLDFHHKNYHPSNAKTFTYGNLPLVDTLKQLNEQFSGYGKRARKDKLLMPIDLKKDIDVKLLGQIDTMLPPEKQTKASMTWICGAPQDTYDTFLLKVLGNLLMDGHSSVMYQKLIESGIGLEFSVNSGVEPTTAVNLLTVGIQGVSDIEIFKDTVNNIFQNLLETEHPFDRKRIDAIIEQLELSKKDQKADFGLQLLYSILPGWTNKIDPFESLLFEDVLQRFRGDLETKGDTLFQDLIRKYIVHKPCFTFSIQGSEEFSKSLDDEEQTRLREKITALDEQDKKNIFKRGILLQEKQNEKEDLSCLPTLQIKDIPRAGDKYSIEQKNNTMSRITDTNGITYVRGKRLLNDIIPFELFPYLPLFAESLTNLGTTTESFSEIEDQIKLHTGGISTHVEVTSDPNTTEPRLIFGFDGWSLNSKTDHIFEFWSKILLETDFHKNSDKLKVLIRLLASSNTSSVADAGHAFARGYSAAHYRSSGAINETLNGIEQLQFINRLHSLLDNEETFQREVVDKLTELQKYIVDTNNMNFFITSDSDVQAKTVESQISKFMERLPHGSCLPNGPKTSDYPLIGSKCKHTLIKFPFQVHYTSQALLGVPYTHKDGSALQVMSNMLTFKHLHREVREKGGAYGGGASYSALAGIFSFYSYRDPQPLKSLETFKNSGRYILNDAKWGVTDLDEAKLTIFQQVDAPKSPKGEGVTYFMSGVTDDMKQARREQLLDVSLLDVHRVAEKYLLNKEGVSTVIGPGIEGKTVSPNWEVKEL
MPP processing activity (Sod2 precursor) after addition of Cym1 protein (MPP; cym1Δ mitochondrial extract): could be restored
